Measurements reported in the DeepSol protein solubility set.

Assay: soluble on expression in E. coli; label from the status in PepcDB or PDB records

Soluble on expression in E. coli, not soluble:
MGSDKIHHHHHHMRTRYVDIDDRMEDLADRLRGDPEIVQDFLARYELSWLYHENALEGVVYSSQELATALANAPLADVTFVSALQEIRNHKVALDLVREEAAAKKPKLNLTTVKKLYETLGHGIEGRSVAEYRKDMPLHRAYFHDIAQPPKIQPALQKLLEATEGADFRNAHPIQQACKLHHGFMQVFPFTENSGRVARLLANLVLLHAGYKLPVIVHATDRQRYYESLRLPDTILRDLTMEALDNALTQAEKYFAEAPRARKAAR, MGSDKIHHHHHHMRTYTKEIQAIIDNVEKVIIGKENVITQSLAALLAGGHVLLEDVPGVGKTMLVRAFSRSIGLTFKRVQFTPDLLPSDLTGVSMYNQKTSQFEYRPGPLMGNIVLADEINRTSPKTQSALLEGMAEANVTVDGEIHTLPNPFFVMATQNPIEHEGTYPLPEAQLDRFLIKVKMGYPDFQQEMKLLTRFERDEPIETLESVITRDELLRMKEDVKAVHVSQPVKKYIVHLVQATRTHASLYLGASPRSSIALMKVAQAWAYMEGRSFVLPDDVKELLTPVLSHRLILTADARYHGQTAERILEQVKKEVAVPIQQDVESL, MGSDKIHHHHHHMRVGATLARAIALKYNKKLVPVNHGIGHIEIGYLTTEARDPLILYLSGGNTIITTFYKGRFRVFGETLDIALGNMMDVFVREVSLAPPYIINGIHVIDICAEKGNKLLKLPYVVKGQDMSFSGLLTAALRVVGKEKLEDICYSVREIAFDMLLEATERALALTSKKELMIVGGVAASVSLRKKLEELGKEWNVQIKIVPPEFAGDNGAMIAYAGMLAASKGVFIDVDKSYIRPRWRVDEVDIPWRN, MGSDKIHHHHHHMRVLFVAPNYYPHIGGVERHVREVSLELQKDGHSITILVPKHDSSYGDFEREGNIEVVRLNKPQTKLFTGLERVLQVAGVSGRFLKADIVNFHDVATMWRYGLWIYPILRVLGKKVYITFHGWEGHFPPKDKIVARRKLAARLADGTMCVGHFIEKWYGTRADVVTYGGVHRSSLPEAHENSVVFVGRLAKDSGIDSYLRAWEWIVRDHPELRLVICGDGAMKKELEDFVCHTGLRNVEFLGLVENPLPYVTDAKVVFTSGYLGILEAFSRKKPVVAVYDNELKKDYLEMMPDSRRLMWIARDSKEVARCVDEALLDREKTERAYRYSLENSWTKVKEDYYRLWNVDGEHGESHGGRGR, MGSDKIHHHHHHMRYAFWNNKGGTGKTSLAFQSICRFAELNPHARILAIDVCPQANLSELMLGGLTNQGSARLMQRQGQVPRCSIGGYFQLRLPAPYTRPAFTASDFITTPNQYNPLIPGNIDLVCGDPLLELQANAVNTLANAQIPGTNTWIAVIDWISDFLESAEGYDYVFFDANPSFSIYTQIALSATNRVILPVMADDSSRRAIQNAFSLIYGLRLPSPIYATYNFATKLREAERPLPQVHLIPKNRLTQYMGPASAFYAVLAAIDQDVAGLLVQRPDLFTFADVADGVVDVRDFQTTGVVSYAKGAPFSQLRTGRLDIGGHRVRVDADMRQNCIDAIDGLVDRIE, MGSDKIHHHHHHMSADIVFDRGSPSDIDEIKTFTSNTWKVGYYTDLYSKLADTGTMDDYVDKVIERWVNDGSVYVLRVSGRPVATIHMEKLPDGSVMLGGLRVHPEYRGSRLGMSIMQETIQFLRGKTERLRSAVYSWNEPSLRLVHRLGFHQVEEYPIYTFQGGSTAVPALKPVNERYAGRWRCFFIDWKYMCSDDPDIIHEEYSNNLIVDGSTFVYFDIYEGGIDLFVNDSDDASSFIEKYRSMNGRITFYVRKALANGLPYVPASSLTVWEYRY, MGSDKIHHHHHHMSAKKNEIRSKLALLQLATELGSISKACGIMGYSRDSYYRFKKQYETAGERGLKNLSRRKPALKNRVSQAVEDQVIEIALDYPNYGQAKVAELLTARGCAISASGVRTIWVRHNLETKKNRLLALHSKLKQDNNLAPSDQVRIEKLYQLDSNDPIFECLYPGDICVQDTFDLGVISPLGQLYQHTFVDGYSQFAIAVIMPERDSASAAEFLEQTVLPWYATAQGLNINTILTDRGSEFFGKKSQQFSDVLSAHNINHIQMRAYNGPVVNGLAARFQDLAYHEFYEPFLKENKAGSLLDLNQQLANWLYDYNHSHAISGRYTLGKTAAEVLKLTKHLSEASSQCS
